Columns and labels:
Test in all cases: cell-based or functional assay
gelatinase B = gelatinase B (UniProt P14780)
stromelysin 1 = stromelysin 1 (UniProt P08254)
[1] = molecular target: human Collagenase-3 (human) (UniProt P45452)

Chain of gelatinase B (P14780 107-707 limits assumed): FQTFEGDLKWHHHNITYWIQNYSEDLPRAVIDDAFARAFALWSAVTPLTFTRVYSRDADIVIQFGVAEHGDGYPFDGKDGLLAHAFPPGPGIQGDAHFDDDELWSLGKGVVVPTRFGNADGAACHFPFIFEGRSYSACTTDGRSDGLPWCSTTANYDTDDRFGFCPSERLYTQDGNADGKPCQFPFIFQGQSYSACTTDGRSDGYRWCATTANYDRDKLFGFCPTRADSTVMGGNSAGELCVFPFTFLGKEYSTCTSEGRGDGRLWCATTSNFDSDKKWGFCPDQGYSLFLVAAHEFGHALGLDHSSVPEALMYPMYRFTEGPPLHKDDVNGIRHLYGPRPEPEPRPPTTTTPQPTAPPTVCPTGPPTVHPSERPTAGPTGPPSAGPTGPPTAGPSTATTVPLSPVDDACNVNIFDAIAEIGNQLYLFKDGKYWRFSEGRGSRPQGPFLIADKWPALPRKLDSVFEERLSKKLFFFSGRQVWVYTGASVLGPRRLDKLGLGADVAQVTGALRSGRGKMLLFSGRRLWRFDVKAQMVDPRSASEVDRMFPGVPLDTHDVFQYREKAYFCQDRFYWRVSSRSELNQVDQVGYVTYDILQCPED
Chain of stromelysin 1 (P08254 100-477 limits assumed): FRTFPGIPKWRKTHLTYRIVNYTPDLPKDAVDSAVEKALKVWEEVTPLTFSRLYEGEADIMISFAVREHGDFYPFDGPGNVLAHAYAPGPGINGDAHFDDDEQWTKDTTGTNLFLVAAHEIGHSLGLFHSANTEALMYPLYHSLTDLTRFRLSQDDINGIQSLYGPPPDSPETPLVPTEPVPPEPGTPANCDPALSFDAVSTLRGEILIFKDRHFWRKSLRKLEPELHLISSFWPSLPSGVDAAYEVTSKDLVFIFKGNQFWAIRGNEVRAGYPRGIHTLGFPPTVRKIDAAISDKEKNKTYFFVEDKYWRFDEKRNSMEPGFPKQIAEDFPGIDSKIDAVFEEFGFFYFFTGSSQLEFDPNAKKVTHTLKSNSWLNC

Average Percent Inhibition from 1.1 to 6.6 Hours, Type II Collagen 0.18 ug/ml (gelatinase B): 9%
Average Percent Inhibition from 1.1 to 6.6 Hours, Type II Collagen 0.54 ug/ml (gelatinase B): 9%
Average Percent Inhibition from 1.1 to 6.6 Hours, Type II Collagen 1.63 ug/ml (gelatinase B): 12%
Average Percent Inhibition from 1.1 to 6.6 Hours, Type II Collagen 4.89 ug/ml (gelatinase B): 38%
Average Percent Inhibition from 1.1 to 6.6 Hours, Type II Collagen 14.67 ug/ml (gelatinase B): 65%
Average Percent Inhibition from 1.1 to 6.6 Hours, Type II Collagen 44.00 ug/ml (gelatinase B): 84%
Average Percent Inhibition, 0.10-1.10 h, TypeIICOL 1.6 ug/ul (gelatinase B): -28%
Average Percent Inhibition, 0.10-1.10 h, TypeIICOL 4.9 ug/ul (gelatinase B): 35%
Average Percent Inhibition, 0.10-1.10 h, TypeIICOL 15 ug/ul (gelatinase B): 57%
Average Percent Inhibition, 0.10-1.10 h, TypeIICOL 44 ug/ul (gelatinase B): 41%
Average Percent Inhibition, 0.10-1.10 h, TypeIICOL .18 ug/ul (gelatinase B): 3%
Average Percent Inhibition, 0.10-1.10 h, TypeIICOL .55 ug/ul (gelatinase B): 3%
Average Percent Inhibition, 1.10-2.10 h, TypeIICOL 1.6 ug/ul (gelatinase B): 14%
Average Percent Inhibition, 1.10-2.10 h, TypeIICOL 4.9 ug/ul (gelatinase B): 43%
Average Percent Inhibition, 1.10-2.10 h, TypeIICOL 15 ug/ul (gelatinase B): 67%
Average Percent Inhibition, 1.10-2.10 h, TypeIICOL 44 ug/ul (gelatinase B): 82%
Average Percent Inhibition, 1.10-2.10 h, TypeIICOL .18 ug/ul (gelatinase B): 12%
Average Percent Inhibition, 1.10-2.10 h, TypeIICOL .55 ug/ul (gelatinase B): 10%
Average Percent Inhibition, 2.10-3.10 h, TypeIICOL 1.6 ug/ul (gelatinase B): 19%
Average Percent Inhibition, 2.10-3.10 h, TypeIICOL 4.9 ug/ul (gelatinase B): 47%
Average Percent Inhibition, 2.10-3.10 h, TypeIICOL 15 ug/ul (gelatinase B): 72%
Average Percent Inhibition, 2.10-3.10 h, TypeIICOL 44 ug/ul (gelatinase B): 87%
Average Percent Inhibition, 2.10-3.10 h, TypeIICOL .18 ug/ul (gelatinase B): 11%
Average Percent Inhibition, 2.10-3.10 h, TypeIICOL .55 ug/ul (gelatinase B): 12%
Average Percent Inhibition, 3.10-4.10 h, TypeIICOL 1.6 ug/ul (gelatinase B): 15%
Average Percent Inhibition, 3.10-4.10 h, TypeIICOL 4.9 ug/ul (gelatinase B): 41%
Average Percent Inhibition, 3.10-4.10 h, TypeIICOL 15 ug/ul (gelatinase B): 69%
Average Percent Inhibition, 3.10-4.10 h, TypeIICOL 44 ug/ul (gelatinase B): 87%
Average Percent Inhibition, 3.10-4.10 h, TypeIICOL .18 ug/ul (gelatinase B): 9%
Average Percent Inhibition, 3.10-4.10 h, TypeIICOL .55 ug/ul (gelatinase B): 10%
Average Percent Inhibition, 4.10-5.10 h, TypeIICOL 1.6 ug/ul (gelatinase B): 11%
Average Percent Inhibition, 4.10-5.10 h, TypeIICOL 4.9 ug/ul (gelatinase B): 35%
Average Percent Inhibition, 4.10-5.10 h, TypeIICOL 15 ug/ul (gelatinase B): 64%
Average Percent Inhibition, 4.10-5.10 h, TypeIICOL 44 ug/ul (gelatinase B): 85%
Average Percent Inhibition, 4.10-5.10 h, TypeIICOL .18 ug/ul (gelatinase B): 7%
Average Percent Inhibition, 4.10-5.10 h, TypeIICOL .55 ug/ul (gelatinase B): 8%
Average Percent Inhibition, 5.10-6.10 h, TypeIICOL 1.6 ug/ul (gelatinase B): 7%
Average Percent Inhibition, 5.10-6.10 h, TypeIICOL 4.9 ug/ul (gelatinase B): 30%
Average Percent Inhibition, 5.10-6.10 h, TypeIICOL 15 ug/ul (gelatinase B): 59%
Average Percent Inhibition, 5.10-6.10 h, TypeIICOL 44 ug/ul (gelatinase B): 83%
Average Percent Inhibition, 5.10-6.10 h, TypeIICOL .18 ug/ul (gelatinase B): 5%
Average Percent Inhibition, 5.10-6.10 h, TypeIICOL .55 ug/ul (gelatinase B): 6%
Average Percent Inhibition from 1.1 to 6.6 Hours, Type II Collagen 0.18 ug/ml (stromelysin 1): 15%
Average Percent Inhibition from 1.1 to 6.6 Hours, Type II Collagen 0.54 ug/ml (stromelysin 1): 13%
Average Percent Inhibition from 1.1 to 6.6 Hours, Type II Collagen 1.63 ug/ml (stromelysin 1): 19%
Average Percent Inhibition from 1.1 to 6.6 Hours, Type II Collagen 4.89 ug/ml (stromelysin 1): 12%
Average Percent Inhibition from 1.1 to 6.6 Hours, Type II Collagen 14.67 ug/ml (stromelysin 1): 18%
Average Percent Inhibition from 1.1 to 6.6 Hours, Type II Collagen 44.00 ug/ml (stromelysin 1): 19%
Average Percent Inhibition, 0.10-1.10 h, TypeIICOL 1.6 ug/ul (stromelysin 1): -10%
Average Percent Inhibition, 0.10-1.10 h, TypeIICOL 4.9 ug/ul (stromelysin 1): 50%
Average Percent Inhibition, 0.10-1.10 h, TypeIICOL 15 ug/ul (stromelysin 1): 57%
Average Percent Inhibition, 0.10-1.10 h, TypeIICOL 44 ug/ul (stromelysin 1): 62%
Average Percent Inhibition, 0.10-1.10 h, TypeIICOL .18 ug/ul (stromelysin 1): 22%
Average Percent Inhibition, 0.10-1.10 h, TypeIICOL .55 ug/ul (stromelysin 1): 43%
Average Percent Inhibition, 1.10-2.10 h, TypeIICOL 1.6 ug/ul (stromelysin 1): 24%
Average Percent Inhibition, 1.10-2.10 h, TypeIICOL 4.9 ug/ul (stromelysin 1): 23%
Average Percent Inhibition, 1.10-2.10 h, TypeIICOL 15 ug/ul (stromelysin 1): 28%
Average Percent Inhibition, 1.10-2.10 h, TypeIICOL 44 ug/ul (stromelysin 1): 32%
Average Percent Inhibition, 1.10-2.10 h, TypeIICOL .18 ug/ul (stromelysin 1): 22%
Average Percent Inhibition, 1.10-2.10 h, TypeIICOL .55 ug/ul (stromelysin 1): 26%
Average Percent Inhibition, 2.10-3.10 h, TypeIICOL 1.6 ug/ul (stromelysin 1): 22%
Average Percent Inhibition, 2.10-3.10 h, TypeIICOL 4.9 ug/ul (stromelysin 1): 11%
Average Percent Inhibition, 2.10-3.10 h, TypeIICOL 15 ug/ul (stromelysin 1): 18%
Average Percent Inhibition, 2.10-3.10 h, TypeIICOL 44 ug/ul (stromelysin 1): 18%
Average Percent Inhibition, 2.10-3.10 h, TypeIICOL .18 ug/ul (stromelysin 1): 15%
Average Percent Inhibition, 2.10-3.10 h, TypeIICOL .55 ug/ul (stromelysin 1): 14%
Average Percent Inhibition, 3.10-4.10 h, TypeIICOL 1.6 ug/ul (stromelysin 1): 18%
Average Percent Inhibition, 3.10-4.10 h, TypeIICOL 4.9 ug/ul (stromelysin 1): 8%
Average Percent Inhibition, 3.10-4.10 h, TypeIICOL 15 ug/ul (stromelysin 1): 14%
Average Percent Inhibition, 3.10-4.10 h, TypeIICOL 44 ug/ul (stromelysin 1): 14%
Average Percent Inhibition, 3.10-4.10 h, TypeIICOL .18 ug/ul (stromelysin 1): 12%
Average Percent Inhibition, 3.10-4.10 h, TypeIICOL .55 ug/ul (stromelysin 1): 10%
Average Percent Inhibition, 4.10-5.10 h, TypeIICOL 1.6 ug/ul (stromelysin 1): 17%
Average Percent Inhibition, 4.10-5.10 h, TypeIICOL 4.9 ug/ul (stromelysin 1): 8%
Average Percent Inhibition, 4.10-5.10 h, TypeIICOL 15 ug/ul (stromelysin 1): 13%
Average Percent Inhibition, 4.10-5.10 h, TypeIICOL 44 ug/ul (stromelysin 1): 14%
Average Percent Inhibition, 4.10-5.10 h, TypeIICOL .18 ug/ul (stromelysin 1): 12%
Average Percent Inhibition, 4.10-5.10 h, TypeIICOL .55 ug/ul (stromelysin 1): 8%
Average Percent Inhibition, 5.10-6.10 h, TypeIICOL 1.6 ug/ul (stromelysin 1): 16%
Average Percent Inhibition, 5.10-6.10 h, TypeIICOL 4.9 ug/ul (stromelysin 1): 8%
Average Percent Inhibition, 5.10-6.10 h, TypeIICOL 15 ug/ul (stromelysin 1): 14%
Average Percent Inhibition, 5.10-6.10 h, TypeIICOL 44 ug/ul (stromelysin 1): 14%
Average Percent Inhibition, 5.10-6.10 h, TypeIICOL .18 ug/ul (stromelysin 1): 12%
Average Percent Inhibition, 5.10-6.10 h, TypeIICOL .55 ug/ul (stromelysin 1): 8%
Average Percent Inhibition from 1.1 to 6.6 Hours, Type II Collagen 0.18 ug/ml [1]: -8%
Average Percent Inhibition from 1.1 to 6.6 Hours, Type II Collagen 0.54 ug/ml [1]: -11%
Average Percent Inhibition from 1.1 to 6.6 Hours, Type II Collagen 1.63 ug/ml [1]: -11%
Average Percent Inhibition from 1.1 to 6.6 Hours, Type II Collagen 4.89 ug/ml [1]: -28%
Average Percent Inhibition from 1.1 to 6.6 Hours, Type II Collagen 14.67 ug/ml [1]: -44%
Average Percent Inhibition from 1.1 to 6.6 Hours, Type II Collagen 44.00 ug/ml [1]: -53%
Average Percent Inhibition, 0.10-1.10 h, TypeIICOL 1.6 ug/ul [1]: 16%
Average Percent Inhibition, 0.10-1.10 h, TypeIICOL 4.9 ug/ul [1]: 8%
Average Percent Inhibition, 0.10-1.10 h, TypeIICOL 15 ug/ul [1]: 6%
Average Percent Inhibition, 0.10-1.10 h, TypeIICOL 44 ug/ul [1]: 2%
Average Percent Inhibition, 0.10-1.10 h, TypeIICOL .18 ug/ul [1]: 6%
Average Percent Inhibition, 0.10-1.10 h, TypeIICOL .55 ug/ul [1]: 14%
Average Percent Inhibition, 1.10-2.10 h, TypeIICOL 1.6 ug/ul [1]: -4%
Average Percent Inhibition, 1.10-2.10 h, TypeIICOL 4.9 ug/ul [1]: -31%
Average Percent Inhibition, 1.10-2.10 h, TypeIICOL 15 ug/ul [1]: -48%
Average Percent Inhibition, 1.10-2.10 h, TypeIICOL 44 ug/ul [1]: -55%
Average Percent Inhibition, 1.10-2.10 h, TypeIICOL .18 ug/ul [1]: -9%
Average Percent Inhibition, 1.10-2.10 h, TypeIICOL .55 ug/ul [1]: -11%
Average Percent Inhibition, 2.10-3.10 h, TypeIICOL 1.6 ug/ul [1]: -15%
Average Percent Inhibition, 2.10-3.10 h, TypeIICOL 4.9 ug/ul [1]: -38%
Average Percent Inhibition, 2.10-3.10 h, TypeIICOL 15 ug/ul [1]: -59%
Substance: bovine type II collagen (from UniProt P02459 182-1241)

Source: patent US20030229005A1
